From patent EP1914304A1

Tested on: Nc1nc2c(ncn2[C@@H]2O[C@H](COP(=O)(O)O)[C@@H](O)[C@H]2O)c(=O)[nH]1
Assay: Michaelis-Menten kinetics of guanylate kinase activity
Assay type: biochemical, murine
Details: other: Table X
Description: . […] Table X Kinetic Analysis of Fusion Proteins

murine guanylate kinase (gmk), wild-type (Mus musculus), sequence (chain, as listed by the source): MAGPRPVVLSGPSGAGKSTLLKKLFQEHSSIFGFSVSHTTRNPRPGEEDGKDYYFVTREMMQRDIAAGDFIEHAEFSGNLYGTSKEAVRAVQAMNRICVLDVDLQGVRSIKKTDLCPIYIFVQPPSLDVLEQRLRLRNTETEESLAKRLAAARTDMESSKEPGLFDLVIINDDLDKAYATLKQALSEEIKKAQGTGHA

## murine guanylate kinase (gmk), wild-type (Mus musculus)
  Km: 25 µM
